Laboratory results published in publication PMC12583548.

Assays:
[1] = biological target: HAstV1 capsid spike domain mutant K467A, 10x histidine-tagged (human astrovirus 1 (HAstV1)) (UniProt O12792); experiment: SEC; Superdex 200 Increase 10/300 GL; traces of the HAstV1 spike mutants overlayed with BioRad gel filtration standards
[2] = biological target: HAstV1 capsid spike domain mutant K467A, 10x histidine-tagged (human astrovirus 1 (HAstV1)) (UniProt O12792); experiment: SEC; Superdex 200 Increase 10/300 GL, HAstV1 spike mutants alone
[3] = biological target: HAstV1 capsid spike domain mutant K467H, Avitag-biotinylated (human astrovirus 1 (HAstV1)) (UniProt O12792); experiment: SEC; Superdex 200 Increase 10/300 GL; traces of the HAstV1 spike mutants overlayed with BioRad gel filtration standards
[4] = biological target: HAstV1 capsid spike domain mutant K514A, 10x histidine-tagged (human astrovirus 1 (HAstV1)) (UniProt O12792); experiment: as above
[5] = biological target: HAstV1 capsid spike domain mutant K514A, 10x histidine-tagged (human astrovirus 1 (HAstV1)) (UniProt O12792); experiment: SEC; Superdex 200 Increase 10/300 GL, HAstV1 spike mutants alone
[6] = biological target: HAstV1 capsid spike domain mutant Y475A, 10x histidine-tagged (human astrovirus 1 (HAstV1)) (UniProt O12792); experiment: SEC; Superdex 200 Increase 10/300 GL; traces of the HAstV1 spike mutants overlayed with BioRad gel filtration standards
[7] = biological target: HAstV1 capsid spike domain mutant Y475A, 10x histidine-tagged (human astrovirus 1 (HAstV1)) (UniProt O12792); experiment: SEC; Superdex 200 Increase 10/300 GL, HAstV1 spike mutants alone
[8] = biological target: HAstV1 capsid spike domain triple mutant 3A (K467A, Y475A, K514A), 10x histidine-tagged (human astrovirus 1 (HAstV1)) (UniProt O12792); experiment: as above
[9] = biological target: HAstV1 capsid spike domain triple mutant 3A (K467A, Y475A, K514A), 10x histidine-tagged (human astrovirus 1 (HAstV1)) (UniProt O12792); experiment: SEC; Superdex 200 Increase 10/300 GL; traces of the HAstV1 spike mutants overlayed with BioRad gel filtration standards
[10] = biological target: HAstV1 capsid spike domain, Avitag-biotinylated (human astrovirus 1 (HAstV1)) (UniProt O12792); experiment: BLI; streptavidin biosensor loaded with biotinylated HAstV1 spike; wild-type or mutant FcRn in solution (500-31.25 nM series; T149N_G151T_D153E at 2000 and 1000 nM); pH 7.0 (0.1 M sodium phosphate, 150 mM NaCl, 0.05% Tween-20), 25 °C; 1:1 model; triplicate
[11] = biological target: HAstV1 capsid spike domain, Avitag-biotinylated (human astrovirus 1 (HAstV1)) (UniProt O12792); experiment: BLI; biosensors loaded with biotinylated HAstV1 spike (streptavidin, as in Fig. 1a); human or mouse FcRn in solution, 500, 250, 125, 62.5 nM; pH 7.0 (0.1 M sodium phosphate, 150 mM NaCl, 0.05% Tween-20), 25 °C; 1:1 model; average of three replicates
[12] = biological target: HAstV1 capsid spike domain mutant K467H, Avitag-biotinylated (human astrovirus 1 (HAstV1)) (UniProt O12792); experiment: BLI; streptavidin biosensors loaded with biotinylated HAstV1 K467H spike, dipped into FcRn (1000, 500, 250 nM); pH 5.0 (0.1 M sodium acetate, 150 mM NaCl, 0.05% Tween-20), 25 °C; 1:1 model; average of three replicates
[13] = biological target: HAstV1 capsid spike domain mutant K467H, Avitag-biotinylated (human astrovirus 1 (HAstV1)) (UniProt O12792); experiment: BLI; streptavidin biosensors loaded with biotinylated HAstV1 K467H spike, dipped into FcRn (2000 nM); pH 7.0 (0.1 M sodium phosphate, 150 mM NaCl, 0.05% Tween-20), 25 °C; 1:1 model; average of three replicates
[14] = biological target: HAstV3 capsid spike domain, 10x histidine-tagged (human astrovirus 3 (HAstV3)); experiment: BLI; HIS1K biosensors loaded with histidine-tagged spike, FcRn in solution at a single concentration of 2000 nM, kinetics estimated from that one concentration; pH 7.0 buffer, 25 °C; 1:1 model
[15] = biological target: HAstV1 capsid spike domain mutant Y475A, 10x histidine-tagged (human astrovirus 1 (HAstV1)) (UniProt O12792); experiment: as above
[16] = biological target: HAstV1 capsid spike domain mutant K467A, 10x histidine-tagged (human astrovirus 1 (HAstV1)) (UniProt O12792); experiment: as above
[17] = biological target: HAstV7 capsid spike domain, 10x histidine-tagged (human astrovirus 7 (HAstV7)); experiment: as above
[18] = biological target: HAstV1 capsid spike domain mutant K467H, Avitag-biotinylated (human astrovirus 1 (HAstV1)) (UniProt O12792); experiment: BLI; streptavidin biosensors loaded with Avitag-biotinylated spike, FcRn in solution (500-62.5 nM for the wild type); pH 7.0 (0.1 M sodium phosphate, 150 mM NaCl, 0.05% Tween-20), 25 °C; 1:1 model
[19] = biological target: HAstV2 capsid spike domain, 10x histidine-tagged (human astrovirus 2 (HAstV2)); experiment: BLI; HIS1K biosensors loaded with 10x histidine-tagged spike, FcRn in solution at 1000, 500, 250, 125 and 62.5 nM; pH 7.0 buffer, 25 °C; 1:1 model
[20] = biological target: HAstV4 capsid spike domain, 10x histidine-tagged (human astrovirus 4 (HAstV4)); experiment: as above
[21] = biological target: HAstV1 capsid spike domain mutant K514A, 10x histidine-tagged (human astrovirus 1 (HAstV1)) (UniProt O12792); experiment: as above
[22] = biological target: HAstV5 capsid spike domain, 10x histidine-tagged (human astrovirus 5 (HAstV5)); experiment: as above
[23] = biological target: HAstV6 capsid spike domain, 10x histidine-tagged (human astrovirus 6 (HAstV6)); experiment: as above

For “HAstV1 capsid spike domain mutant K467A, 10x histidine-tagged (from UniProt O12792 433-645) (domain or fragment)”, the stoichiometry N [1] was 2 and the stoichiometry N [2] was 2.

“HAstV1 capsid spike domain mutant K467H, Avitag-biotinylated (from UniProt O12792 433-645) (domain or fragment)” was tested, and the stoichiometry N [3] was 2.

“HAstV1 capsid spike domain mutant K514A, 10x histidine-tagged (from UniProt O12792 433-645) (domain or fragment)” showed a stoichiometry N [4] of 2 and a stoichiometry N [5] of 2.

In the case of “HAstV1 capsid spike domain mutant Y475A, 10x histidine-tagged (from UniProt O12792 433-645) (domain or fragment)”, the stoichiometry N [6] is reported as 2 and the stoichiometry N [7] is reported as 2.

“HAstV1 capsid spike domain triple mutant 3 A (K467A, Y475A, K514A), 10x histidine-tagged (from UniProt O12792 433-645) (domain or fragment)” was tested, and the stoichiometry N [8] was 2.

For “HAstV1 capsid spike domain triple mutant 3A (K467A, Y475A, K514A), 10x histidine-tagged (from UniProt O12792 433-645) (domain or fragment)”, the stoichiometry N [9] was 2.

“human FcRn mutant D153E (ectodomain heterodimer with β2 microglobulin) (from UniProt P55899 24-297; P61769 21-119) (receptor)” gave a koff [10] of 0.14 s⁻¹ and a kon [10] of 85000 M⁻¹ s⁻¹.

“human FcRn mutant T149N_G151T (ectodomain heterodimer with β2 microglobulin) (from UniProt P55899 24-297; P61769 21-119) (receptor)” gave a koff [10] of 0.034 s⁻¹ and a kon [10] of 74000 M⁻¹ s⁻¹.

With “human FcRn mutant T149N_G151T_D153E (ectodomain heterodimer with β2 microglobulin) (from UniProt P55899 24-297; P61769 21-119) (receptor)” the Kd [10] was 11.9 µM, the koff [10] was 0.37 s⁻¹ and the kon [10] was 31000 M⁻¹ s⁻¹.

Work on “human neonatal Fc receptor (FcRn), wild-type ectodomain heterodimer of αFcRn and β2 microglobulin (from UniProt P55899 24-297; P61769 21-119)” yielded a koff [11] of 0.018 s⁻¹, a kon [11] of 94000 M⁻¹ s⁻¹ and a koff [10] of 0.0223 s⁻¹. It also gave a kon [10] of 93000 M⁻¹ s⁻¹, a koff [12] of 0.051 s⁻¹ and a kon [12] of 66000 M⁻¹ s⁻¹. It also gave a koff [13] of 0.24 s⁻¹ and a kon [13] of 11000 M⁻¹ s⁻¹.

For “neonatal Fc receptor (FcRn), recombinant human ectodomain heterodimer of FcRn α-chain and β2 microglobulin, with tags (from UniProt P55899;P61769)”, the Kd [14] was 181 µM, the koff [14] was 0.099 s⁻¹ and the Kd [15] was 8 µM. The koff [15] was 0.22 s⁻¹, the Kd [16] was 15 µM and the koff [16] was 0.284 s⁻¹. The Kd [17] was 10.3 µM, the koff [17] was 0.013 s⁻¹ and the Kd [18] was 22.5 µM. For the same substance, the koff [19] was 0.048 s⁻¹, the Kd [20] was 0.23 µM and the Kd [21] was 2.5 µM. For the same substance, the koff [21] was 0.056 s⁻¹, the Kd [22] was 0.152 µM and the koff [22] was 0.006 s⁻¹. For the same substance, the koff [23] was 0.015 s⁻¹.
